Laboratory results: patent US20250388678A1, “Methods, Combinations, and Uses for the Treatment of Muscle Invasive Bladder Cancer” (AstraZeneca AB, priority 2024, published 2025)

Assays:
[1] = NIAGARA phase III study: adverse events and immune-mediated adverse events; type: in vivo
Source text: Adverse Events (AEs), Serious Adverse Events (SAE), and immune-mediated adverse events (imAE) were collected from the time of the patient signing the informed consent form until follow-up period as completed (90 days after last dose of treatment (Arm 1) or adjuvant phase study visits (Arm 2). Tables 3 and 4 outline the variables collected for adverse events and severe adverse events.
AESIs for durvalumab include but are not limited to events with a potential inflammatory or immune-mediated mechanism and which may require more frequent monitoring and/or interventions such as steroids, immunosuppressants, and/or hormone replacement therapy. These AESIs are closely monitored in clinical studies with durvalumab monotherapy and combination therapy. An imAE is defined as an AESI that is associated with drug exposure, required the use of systemic steroids or other immunosuppressants and/or endocrine therapy for specific endocrine events, is consistent with an immune-mediated MOA, and where there is no clear alternate etiology.
Serologic, immunologic, and histologic (biopsy) data, as appropriate, were used to support an imAE diagnosis. Appropriate efforts were made to rule out neoplastic, infectious, metabolic, toxin, or other etiologic causes of the imAE.
The overall safety profile is consistent with the known safety profile of durvalumab and chemotherapy. The addition of durvalumab to chemotherapy had no detrimental impact on backbone chemotherapy administration. AEs leading to treatment discontinuation in neoadjuvant phase were balanced between the two arms. The number of patients not undergoing radical surgery because of AEs due to neoadjuvant treatment was balanced in both arms. Rates of grade 3 or 4 AEs and AEs with outcome of death were similar between the two arms (See Table 6). The overall study period included AEs that occurred between the first dose of study treatment, and whichever occurred first: 1) 90 days after the last dose of treatment, surgery, or last adjuvant visit; 2) date of first dose of subsequent anti-cancer therapy; or 3) data cut-off date.

[2] = tested on: muscle-invasive bladder cancer; assay: NIAGARA phase III study: pathological complete response (pCR) at radical cystectomy; type: in vivo, human
Method: (§1) Dual primary efficacy endpoints evaluated in this study were event-free survival (EFS; per blinded independent central review [BICR]) and pathological complete response (pCR; evaluated centrally). Therefore, if either the EFS endpoint or pCR endpoint was achieved, the study was considered a success.
Primary tumors and sampled lymph nodes were assessed for pathological response to neoadjuvant treatment by central pathology review using recommendations from the IASLC.
pCR efficacy assessment was accomplished by pathological review of radical cystectomy samples. EFS efficacy assessment were assessed by either RECIST 1.1 on imaging scans by pathology on biopsy samples if required.

[3] = tested on: muscle-invasive bladder cancer; assay: NIAGARA phase III study: survival efficacy endpoints (EFS, OS, MFS, DSS, DFS); type: in vivo, human
Source text: The NIAGARA (NCT03732677) study described herein is a phase III, randomized, open-label, multi-center global study of durvalumab in combination with neoadjuvant gemcitabine+cisplatin before cystectomy (surgery to remove the bladder) followed by durvalumab as adjuvant monotherapy in patients with histologically or cytologically documented, resectable muscle-invasive bladder cancer and transitional cell carcinoma of the urothelium.
The study enrolled 1530 patients and randomized 1063 of those the patients in a 1:1 ratio to receive durvalumab+Gemcitabine+Cisplatin (D+G+C) combination therapy every three weeks (q3w) (Arm 1) or G+C combination therapy q3w (Arm 2) for 4 cycles of neoadjuvant chemotherapy prior to radical cystectomy. Patients started adjuvant durvalumab or placebo administration following surgery as soon as clinically feasible and within 42-120 days following surgery from surgery. Following radical cystectomy and during adjuvant therapy, patients in Arm 1 received durvalumab monotherapy every 4 weeks (q4w) for 8 additional cycles, and patients in Arm 2 received no adjuvant treatment.
Patients received a combination therapy comprising 1500 mg durvalumab or placebo via intravenous (IV) infusion q3w for up to a maximum of 4 cycles prior to surgery and a platinum therapy consisting of cisplatin and gemcitabine, the dose dependent on renal function. Patients having a creatinine clearance rate of about ≥60 mL/min, were administered cisplatin at a dose of about 70 mg/m^2 on day 1 of each cycle; and (b) gemcitabine at a dose of about 1000 mg/m^2 on days 1 and 8 of each cycle every 3 weeks (q3w) for a total of four cycles. Patients having a creatinine clearance rate of about ≥40 mL/min to <60 mL/min, were administered cisplatin at a dose of about 70 mg/m^2 on day 1 of each cycle; and (b) gemcitabine at a dose of about 1000 mg/m^2 on days 1 and 8 of each cycle every 3 weeks (q3w) for a total of four cycles.
A radical cystectomy was performed as soon as possible after completion of fourth administration of the combination therapy. The radical cystectomy was performed between […] following the last administration of the combination therapy. Male patients underwent radial cytoprostatectomy and urinary diversion along with bilateral pelvic lymph node dissection. Female patients underwent radical cystectomy. Elective hysterectomy and bilateral salpingectomy was optionally performed if no gross evidence of oncologic involvement was noted by the surgeon. Oophorectomy was omitted if clinically indicated. A urinary diversion creation was established via an ileal conduit, ileal neobladder, Indiana Pouch, or as per local practice. Bilateral pelvic lymph node dissection included following template to include the 1) external iliac, 2) obturator, and 3) internal iliac nodes, and 4) common iliac nodes to the level of the ureteric crossing and included a lymph node classified as cN1 at baseline if one was present. Removal of other nodes is per the surgeon's discretion. The boundaries of the template were the circumflex iliac vein and Cloquet's node, laterally by the genitofemoral nerve, medially by the bladder, posteriorly by the obturator fossa, and proximally to the ureter. Radical cystectomy was mandatory study procedure for all patients unless a patient is only able to undergo a partial cystectomy.
as §1
Secondary endpoints included overall survival (OS), and evaluation of the primary outcome in the PD-L1 high subgroup; pharmacokinetics and immunogenicity; patient-reported outcomes; and safety. […]

PD-L1 = PD-L1 (Homo sapiens, UniProt Q9NZQ7); details: in vitro; cited from earlier work
Chain of PD-L1 (Q9NZQ7 19-290): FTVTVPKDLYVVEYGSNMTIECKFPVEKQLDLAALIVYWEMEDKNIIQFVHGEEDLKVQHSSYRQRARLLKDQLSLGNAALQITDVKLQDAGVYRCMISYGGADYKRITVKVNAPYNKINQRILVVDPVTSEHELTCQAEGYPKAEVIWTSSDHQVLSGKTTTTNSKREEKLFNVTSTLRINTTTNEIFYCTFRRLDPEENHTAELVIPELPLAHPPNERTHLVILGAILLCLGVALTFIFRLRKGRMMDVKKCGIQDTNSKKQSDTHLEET

xenograft model = details: via a T-cell dependent mechanism; cited from earlier work
[4] = Safety Analysis Set, number of patients
[5] = durvalumab arm vs comparator arm
[6] = ITT, durvalumab arm vs comparator arm
[7] = ITT, of 533 (durvalumab arm) / 530 (comparator arm)
[8] = non-pCR subgroup, durvalumab vs comparator, exploratory post hoc
[9] = pCR subgroup, durvalumab vs comparator, exploratory post hoc
[10] = patients with radical cystectomy and post-RC baseline scan, vs comparator arm

Durvalumab: antibody that selectively binds PD-L1; trial arm: durvalumab+gemcitabine+cisplatin before radical cystectomy, then adjuvant durvalumab monotherapy
Anemia (%) ([1]; Safety Analysis Set): (38.7) %
Asthenia (%) ([1]; Safety Analysis Set): (17.5) %
Blood creatinine increased (%) ([1]; Safety Analysis Set): (18.5) %
Constipation (%) ([1]; Safety Analysis Set): (38.7) %
Decreased appetite (%) ([1]; Safety Analysis Set): (26.6) %
Diarrhea (%) ([1]; Safety Analysis Set): (20.6) %
Fatigue (%) ([1]; Safety Analysis Set): (36.0) %
Nausea (%) ([1]; Safety Analysis Set): (53.6) %
Neutropenia (%) ([1]; Safety Analysis Set): (25.8) %
Neutrophil count decreased (%) ([1]; Safety Analysis Set): (15.3) %
Patients with any AE (%) ([1]; Safety Analysis Set): (99.4) %
Pruritis (%) ([1]; Safety Analysis Set): (15.1) %
Pyrexia (%) ([1]; Safety Analysis Set): (20.8) %
Urinary tract infection (%) ([1]; Safety Analysis Set): (30.0) %
Vomiting (%) ([1]; Safety Analysis Set): (19.2) %
Anemia, number [1, 4]: 205
Asthenia, number [1, 4]: 93
Blood creatinine increased, number [1, 4]: 98
Constipation, number [1, 4]: 205
Decreased appetite, number [1, 4]: 141
Diarrhea, number [1, 4]: 109
Fatigue, number [1, 4]: 191
Nausea, number [1, 4]: 284
Neutropenia, number [1, 4]: 137
Neutrophil count decreased, number [1, 4]: 81
Patients with any AE, number [1, 4]: 527
Pruritis, number [1, 4]: 80
Pyrexia, number [1, 4]: 110
Urinary tract infection, number [1, 4]: 159
Vomiting, number [1, 4]: 102
AEs leading to discontinuation of NAC, % ([1]; in vivo): (13.6) %
AEs leading to discontinuation of adjuvant durvalumab, % ([1]; in vivo): (7.8) %
AEs leading to discontinuation of neoadjuvant durvalumab, % ([1]; in vivo): (9.4) %
AEs leading to patient not undergoing RC, % ([1]; in vivo): (1.1) %
additional imAEs: dermatitis/rash, renal events, diarrhea/colitis, pneumonitis (each) ([1]; in vivo): ≤ 2%
imAE hyperthyroid events ([1]; in vivo): 3%
imAE hypothyroid events ([1]; in vivo): 10%
imAEs resolved at data cutoff, number of patients ([1]; of 111 (durvalumab arm) / 16 (comparator arm)): 45 patients
imAEs reported, number of patients ([1]; of 530 (durvalumab arm) / 526 (comparator arm)): 111 patients
imAEs resolved at data cutoff, percent of patients ([1]; of patients with imAEs): 41%
AEs leading to delay in surgery, % ([1]; outside recommended timeframe for RC of 56 days after last dose of NAC): (2.0) %
AEs leading to discontinuation of study treatment, % ([1]; overall study period): (21) %
AEs possibly related to any treatment: Max grade 3 or 4, % ([1]; overall study period): (40.6) %
AEs possibly related to any treatment: Outcome of death, % ([1]; overall study period): (0.6) %
AEs with outcome of death, % ([1]; overall study period): (5.1) %
Any-grade AEs possibly related to any treatment, % ([1]; overall study period): (94.7) %
Any-grade AEs, % ([1]; overall study period): (99.4) %
Any-grade AEs: Max grade 3 or 4, % ([1]; overall study period): (69.4) %
SAEs, % ([1]; overall study period): (61.5) %
imAEs grade 3/4 ([1]; overall study period): 3%
imAEs reported, percent of patients ([1]; overall study period, any grade): 21%
patients with pCR at the time of the radical cystectomy ([2]; ITT): 37.3%
difference in pCR with durvalumab in addition to chemotherapy [2, 5]: ~10%
pCR odds ratio [2, 5]: 1.60
pCR rates among patients that underwent RC ([2]; durvalumab arm=469 patients, comparator arm=441 patients): increased
death from bladder cancer, percent of patients ([3]; ITT): 15.9%
patients with distant metastases or death (MFS events), percent ([3]; ITT): 28.5%
EFS Hazard Ratio (HR) ([3]; ITT population, durvalumab+cisplatin+gemcitabine vs cisplatin+gemcitabine, BICR, DCO April 2024): 0.68
probability of 24-month metastasis-free survival ([3]; ITT, 24 months): 75.1%
disease-specific survival hazard ratio (HR) [3, 6]: 0.69
metastasis-free survival hazard ratio (HR) [3, 6]: 0.67
reduction in risk of death from bladder cancer (disease-specific survival) [3, 6]: 31%
reduction in the relative risk of death from any cause (OS) [3, 6]: 25%
reduction in risk of developing a distant metastasis or dying (metastasis-free survival) ([3]; ITT, durvalumab arm vs comparator arm, greater than 40 month follow-up): 33%
OS hazard ratio (HR) ([3]; ITT, durvalumab arm vs comparator arm, interim analysis): 0.75
death from bladder cancer, number of patients [3, 7]: 85 patients
patients with distant metastases or death (MFS events), number [3, 7]: 152 patients
24-month probability of disease-free survival ([3]; ITT, under heading Disease Specific Survival, 24 months): 89.2%
24-month EFS rate ([3]; Non-pCR subgroup): 53%
24-month OS rate ([3]; Non-pCR subgroup): 74%
DFS HR, non-pCR group ([3]; non-pCR group, vs comparator arm, exploratory post hoc): 0.82
reduction in relative risk tumor growth, tumor spreading, not undergoing surgery or dying ([3]; non-pCR patients): 23%
reduction in the relative risk of dying from any cause ([3]; non-pCR patients): 16%
EFS HR, non-pCR patients [3, 8]: 0.77
OS HR, non-pCR patients [3, 8]: 0.84
DFS HR, pCR group ([3]; pCR group, vs comparator arm, exploratory post hoc): 0.58
24-month EFS rate ([3]; pCR subgroup): 92%
24-month OS rate ([3]; pCR subgroup): 96%
EFS HR, patients with pCR [3, 9]: 0.58
OS HR, patients with pCR [3, 9]: 0.72
reduction in the relative risk of dying from any cause ([3]; patients achieving pCR): 28%
reduction in relative risk of tumor growth, tumor spreading, not undergoing surgery or dying ([3]; patients that achieved pCR): 42%
DFS hazard ratio (HR) [3, 10]: 0.69
reduced risk of disease recurrence or death (DFS) [3, 10]: 31%
DFS HR, divergent or other histologic subtypes ([3]; total n=103, vs comparator arm): 0.45
effect on PD-L1-mediated suppression of human T-cell activation (PD-L1): relieve PD-L1-mediated suppression of human T-cell activation
effect on tumor growth in a xenograft model (xenograft model): inhibits tumor growth
